Measurements published in publication doi:10.1101/2021.05.16.444004 (bioRxiv, 2021).

Molecular target: SARS-CoV-2 RBD-SD1 (SARS-CoV-2, Wuhan-Hu-1, UniProt P0DTC2)
Experiment: BLI

B1: 54042-4 IgG (antibody, V domains shown)
VH: QITLKESGPTLVKPTQTLTLTCTFSGFSLSTIGVGVSWIRQPPGKALDWLALIYWDDDKRYSPSLKSRLTVTMDTSKNQVVLTLTNMDPVDTATYFCAHGLFSSSDWGGLDVWGQGTTVTVSS
VL: DMQMTQSPSSLSASVGDRVTITCRASQSVFTYLNWYQQKPGKAPKLLIYAASRLQSGVPSRFRGSGSGTDFTLTISSLQPEDFATYYCQQSHSTPFIFGPGTKVDIK
B1 gave a Kd of 21.8 nM.
